IntAct's records for PubMed 31515488

B1: Isoform 1 of Targeting protein for Xklp2 (Homo sapiens), Q9ULW0-1 (parent)
chain: MSQVKSSYSYDAPSDFINFSSLDDEGDTQNIDSWFEEKANLENKLLGKNGTGGLFQGKTPLRKANLQQAIVTPLKPVDNTYYKEAEKENLVEQSIPSNACSSLEVEAAISRKTPAQPQRRSLRLSAQKDLEQKEKHHVKMKAKRCATPVIIDEILPSKKMKVSNNKKKPEEEGSAHQDTAEKNASSPEKAKGRHTVPCMPPAKQKFLKSTEEQELEKSMKMQQEVVEMRKKNEEFKKLALAGIGQPVKKSVSQVTKSVDFHFRTDERIKQHPKNQEEYKEVNFTSELRKHPSSPARVTKGCTIVKPFNLSQGKKRTFDETVSTYVPLAQQVEDFHKRTPNRYHLRSKKDDINLLPSKSSVTKICRDPQTPVLQTKHRARAVTCKSTAELEAEELEKLQQYKFKARELDPRILEGGPILPKKPPVKPPTEPIGFDLEIEKRIQERESKKKTEDEHFEFHSRPCPTKILEDVVGVPEKKVLPITVPKSPAFALKNRIRMPTKEDEEEDEPVVIKAQPVPHYGVPFKPQIPEARTVEICPFSFDSRDKERQLQKEKKIKELQKGEVPKFKALPLPHFDTINLPEKKVKNVTQIEPFCLETDRRGALKAQTWKHQLEEELRQQKEAACFKARPNTVISQEPFVPKKEKKSVAEGLSGSLVQEPFQLATEKRAKERQELEKRMAEVEAQKAQQLEEARLQEEEQKKEELARLRRELVHKANPIRKYQGLEIKSSDQPLTVPVSPKFSTRFHC
partner: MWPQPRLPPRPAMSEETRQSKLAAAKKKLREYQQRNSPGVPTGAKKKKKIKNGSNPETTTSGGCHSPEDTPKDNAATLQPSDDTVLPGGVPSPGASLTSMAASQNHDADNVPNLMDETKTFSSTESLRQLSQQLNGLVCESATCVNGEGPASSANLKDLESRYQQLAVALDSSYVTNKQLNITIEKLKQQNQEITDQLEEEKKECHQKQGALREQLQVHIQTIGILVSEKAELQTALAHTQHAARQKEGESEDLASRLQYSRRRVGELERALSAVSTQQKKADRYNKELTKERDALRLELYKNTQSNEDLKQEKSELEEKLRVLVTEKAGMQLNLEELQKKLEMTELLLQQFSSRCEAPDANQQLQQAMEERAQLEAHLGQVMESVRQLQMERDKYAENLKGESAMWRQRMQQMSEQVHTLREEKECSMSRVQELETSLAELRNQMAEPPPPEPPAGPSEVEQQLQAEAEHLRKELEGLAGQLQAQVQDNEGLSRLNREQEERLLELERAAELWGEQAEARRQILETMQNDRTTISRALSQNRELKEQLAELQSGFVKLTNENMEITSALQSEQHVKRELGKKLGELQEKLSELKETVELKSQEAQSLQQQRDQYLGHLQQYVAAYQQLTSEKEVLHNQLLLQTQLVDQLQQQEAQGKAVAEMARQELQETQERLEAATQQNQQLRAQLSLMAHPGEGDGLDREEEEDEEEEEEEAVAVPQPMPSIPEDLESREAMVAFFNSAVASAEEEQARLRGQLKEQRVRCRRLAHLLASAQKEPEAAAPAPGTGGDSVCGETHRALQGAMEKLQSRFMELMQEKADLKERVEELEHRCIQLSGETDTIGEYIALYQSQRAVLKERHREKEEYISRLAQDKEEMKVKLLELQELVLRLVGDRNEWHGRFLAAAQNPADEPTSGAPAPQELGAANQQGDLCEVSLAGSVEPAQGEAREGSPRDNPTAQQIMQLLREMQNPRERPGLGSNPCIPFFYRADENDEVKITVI
B2: Protein DDI1 homolog 1 (Homo sapiens), Q8WTU0 (parent)
chain: MLITVYCVRRDLSEVTFSLQVSPDFELRNFKVLCEAESRVPVEEIQIIHMERLLIEDHCSLGSYGLKDGDIVVLLQKDNVGPRAPGRAPNQPRVDFSGIAVPGTSSSRPQHPGQQQQRTPAAQRSQGLASGEKVAGLQGLGSPALIRSMLLSNPHDLSLLKERNPPLAEALLSGSLETFSQVLMEQQREKALREQERLRLYTADPLDREAQAKIEEEIRQQNIEENMNIAIEEAPESFGQVTMLYINCKVNGHPLKAFVDSGAQMTIMSQACAERCNIMRLVDRRWAGVAKGVGTQRIIGRVHLAQIQIEGDFLQCSFSILEDQPMDMLLGLDMLRRHQCSIDLKKNVLVIGTTGTQTYFLPEGELPLCSRMVSGQDESSDKEITHSVMDSGRKEH
partner: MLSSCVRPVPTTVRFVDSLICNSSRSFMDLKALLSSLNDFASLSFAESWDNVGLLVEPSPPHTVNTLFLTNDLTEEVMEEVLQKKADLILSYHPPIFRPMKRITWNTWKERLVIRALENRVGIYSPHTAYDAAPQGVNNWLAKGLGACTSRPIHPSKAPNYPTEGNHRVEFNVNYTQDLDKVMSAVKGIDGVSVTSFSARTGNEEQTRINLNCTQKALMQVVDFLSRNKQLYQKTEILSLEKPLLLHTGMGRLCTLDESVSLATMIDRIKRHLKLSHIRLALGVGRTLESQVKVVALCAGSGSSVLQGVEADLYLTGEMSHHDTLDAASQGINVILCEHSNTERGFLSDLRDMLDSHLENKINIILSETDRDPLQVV
B3: Protein FAM9B (Homo sapiens), Q8IZU0 (parent)
chain: MAAWGKKHAGKDPVRDECEERNRFTETREEDVTDEHGEREPFAETDEHTGANTKKPEDTAEDLTAKRKRMKMDKTCSKTKNKSKHALRKKQLKRQKRDYIHSLKLLNVLEEYITDEQKEEEEEEGEEEELIRIFQEQQKKWQQYRSVRRERLKEMKLLRDQFVKALEDFEDLCDRVFSDEDSELDN
partner: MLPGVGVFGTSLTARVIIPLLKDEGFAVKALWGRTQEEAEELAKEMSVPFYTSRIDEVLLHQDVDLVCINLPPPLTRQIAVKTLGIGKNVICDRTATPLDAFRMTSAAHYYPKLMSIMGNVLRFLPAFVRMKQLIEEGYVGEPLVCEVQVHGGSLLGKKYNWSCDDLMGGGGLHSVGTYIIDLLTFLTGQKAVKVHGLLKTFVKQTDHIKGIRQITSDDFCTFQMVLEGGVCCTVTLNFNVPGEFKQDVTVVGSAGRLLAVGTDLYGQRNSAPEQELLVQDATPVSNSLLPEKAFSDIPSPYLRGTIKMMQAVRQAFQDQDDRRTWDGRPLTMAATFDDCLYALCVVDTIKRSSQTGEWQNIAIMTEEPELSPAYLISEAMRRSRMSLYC

Variants of: B1
Conditions: with goga2_human GOLGA2, Q08379

| Variant | effect of a mutation on the interaction |
| --- | --- |
| T464N | with no effect |

Variants of: B2
Conditions: with nif3l_human NIF3L1, Q9GZT8

| Variant | effect of a mutation on the interaction |
| --- | --- |
| MLITVYCVRRDLSEVTFSLQVSPDFELRNFKVLCEAESRVPVEEIQIIHMERLLIEDHCSLGSYGLKDGDIVVLLQKDNVGPRAPGRAPNQPRVDFSGIAVPGTSSSRPQHPGQQQQRTPAAQRSQGLASGEKVASLQGLGSPALIRSMLLSNPHDLSLLKERNPPLAEALLSGSLETFSQVLMEQQREKALREQERLRLYTADPLDREAQAKIEEEIRQQNIEENMNIAIEEAPESFGQVTMLYINCKVNGHPLKAFVDSGAQMTIMSQACAERCNIMRLVDRRWAGVAKGVGTQRIIGRVHLAQIQIEGDFLQCSFSILEDQPMDMLLGLDMLRRHQCSIDLKKNVLVIGTTGTQTYFLPEGELPLCSRMVSGQDESSDKEITHSVMDSGRKEH [G136S] | with no effect |
| MLITVYCVRRDLSEVTFSLQVSPDFELRNFKVLCEAESRVPVEEIQIIHMERLLIEDHCSLGSYGLKDGDIVVLLQKDNVGPRAPGRAPNQPRVDFSGIAVPGTSSSRPQHPGQQQQRTPAAQRSQGLASGEKVAGLQGLGSPALIRSMLLSNPHDLSLLKERNPPLAEALLSGSLETFSQVLMEQQREKALREQERLRLYTADPLDREAQAKIEEEIRQQNIEENMTIAIEEAPESFGQVTMLYINCKVNGHPLKAFVDSGAQMTIMSQACAERCNIMRLVDRRWAGVAKGVGTQRIIGRVHLAQIQIEGDFLQCSFSILEDQPMDMLLGLDMLRRHQCSIDLKKNVLVIGTTGTQTYFLPEGELPLCSRMVSGQDESSDKEITHSVMDSGRKEH [N228T] | with no effect |

Variants of: B3
Conditions: with gfod1_human GFOD1, Q9NXC2

| Variant | effect of a mutation on the interaction |
| --- | --- |
| R23H | with no effect |
